Results reported in IntAct's records for PubMed 15457209.

B1: Rab GTPase-binding effector protein 1 (Homo sapiens), Q15276 (parent)
chain: MAQPGPASQPDVSLQQRVAELEKINAEFLRAQQQLEQEFNQKRAKFKELYLAKEEDLKRQNAVLQAAQDDLGHLRTQLWEAQAEMENIKAIATVSENTKQEAIDEVKRQWREEVASLQAVMKETVRDYEHQFHLRLEQERTQWAQYRESAEREIADLRRRLSEGQEEENLENEMKKAQEDAEKLRSVVMPMEKEIAALKDKLTEAEDKIKELEASKVKELNHYLEAEKSCRTDLEMYVAVLNTQKSVLQEDAEKLRKELHEVCHLLEQERQQHNQLKHTWQKANDQFLESQRLLMRDMQRMEIVLTSEQLRQVEELKKKDQEDDEQQRLNKRKDHKKADVEEEIKIPVVCALTQEESSAQLSNEEEHLDSTRGSVHSLDAGLLLPSGDPFSKSDNDMFKDGLRRAQSTDSLGTSGSLQSKALGYNYKAKSAGNLDESDFGPLVGADSVSENFDTASLGSLQMPSGFMLTKDQERAIKAMTPEQEETASLLSSVTQGMESAYVSPSGYRLVSETEWNLLQKEVHNAGNKLGRRCDMCSNYEKQLQGIQIQEAETRDQVKKLQLMLRQANDQLEKTMKDKQELEDFIKQSSEDSSHQISALVLRAQASEILLEELQQGLSQAKRDVQEQMAVLMQSREQVSEELVRLQKDNDSLQGKHSLHVSLQQAEDFILPDTTEALRELVLKYREDIINVRTAADHVEEKLKAEILFLKEQIQAEQCLKENLEETLQLEIENCKEEIASISSLKAELERIKVEKGQLESTLREKSQQLESLQEIKISLEEQLKKETAAKATVEQLMFEEKNKAQRLQTELDVSEQVQRDFVKLSQTLQVQLERIRQADSLERIRAILNDTKLTDINQLPET
partner: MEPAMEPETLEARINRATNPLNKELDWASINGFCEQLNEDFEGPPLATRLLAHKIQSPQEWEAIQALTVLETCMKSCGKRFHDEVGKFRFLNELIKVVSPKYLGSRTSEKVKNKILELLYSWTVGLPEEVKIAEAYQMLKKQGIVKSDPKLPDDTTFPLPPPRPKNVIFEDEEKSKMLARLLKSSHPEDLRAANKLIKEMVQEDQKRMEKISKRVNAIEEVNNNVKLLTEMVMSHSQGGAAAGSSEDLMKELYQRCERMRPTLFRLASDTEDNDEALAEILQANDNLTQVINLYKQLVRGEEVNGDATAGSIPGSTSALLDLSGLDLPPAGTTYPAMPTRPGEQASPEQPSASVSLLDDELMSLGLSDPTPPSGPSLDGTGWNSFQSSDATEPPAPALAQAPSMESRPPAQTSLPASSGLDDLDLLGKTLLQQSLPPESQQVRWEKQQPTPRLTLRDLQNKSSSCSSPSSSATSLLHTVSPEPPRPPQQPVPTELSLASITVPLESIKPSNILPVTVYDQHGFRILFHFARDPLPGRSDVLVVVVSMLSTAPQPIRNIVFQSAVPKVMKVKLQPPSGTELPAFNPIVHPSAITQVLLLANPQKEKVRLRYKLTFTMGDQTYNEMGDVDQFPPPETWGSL

Variants of: B1
Settings: with gga1_human GGA1, Q9UJY5

Effect of a mutation on the interaction, decreasing interaction:
Q561A
M563R
Q566A
Q566R
N568R
